Biological target: T1, MBP-EZH2 (uncleavable MBP fusion, three-alanine linker) (human, UniProt Q15910-2 2-751)
T1 construct: forward primer starts at codon 2 after the three alanines, reverse primer holds the stop codon; A short linker of three alanine residues connects MBP and EZH2; no PreScission site between them; Present as a subunit of the co-purified PRC2 5m complex; also called tagged EZH2; MBP-tagged EZH2; source: Sf9, baculovirus, co-expressed and co-purified with the other PRC2 subunits (amylose resin, …)
T1 sequence (Q15910 other isoform, or with tags, fused parts or gaps): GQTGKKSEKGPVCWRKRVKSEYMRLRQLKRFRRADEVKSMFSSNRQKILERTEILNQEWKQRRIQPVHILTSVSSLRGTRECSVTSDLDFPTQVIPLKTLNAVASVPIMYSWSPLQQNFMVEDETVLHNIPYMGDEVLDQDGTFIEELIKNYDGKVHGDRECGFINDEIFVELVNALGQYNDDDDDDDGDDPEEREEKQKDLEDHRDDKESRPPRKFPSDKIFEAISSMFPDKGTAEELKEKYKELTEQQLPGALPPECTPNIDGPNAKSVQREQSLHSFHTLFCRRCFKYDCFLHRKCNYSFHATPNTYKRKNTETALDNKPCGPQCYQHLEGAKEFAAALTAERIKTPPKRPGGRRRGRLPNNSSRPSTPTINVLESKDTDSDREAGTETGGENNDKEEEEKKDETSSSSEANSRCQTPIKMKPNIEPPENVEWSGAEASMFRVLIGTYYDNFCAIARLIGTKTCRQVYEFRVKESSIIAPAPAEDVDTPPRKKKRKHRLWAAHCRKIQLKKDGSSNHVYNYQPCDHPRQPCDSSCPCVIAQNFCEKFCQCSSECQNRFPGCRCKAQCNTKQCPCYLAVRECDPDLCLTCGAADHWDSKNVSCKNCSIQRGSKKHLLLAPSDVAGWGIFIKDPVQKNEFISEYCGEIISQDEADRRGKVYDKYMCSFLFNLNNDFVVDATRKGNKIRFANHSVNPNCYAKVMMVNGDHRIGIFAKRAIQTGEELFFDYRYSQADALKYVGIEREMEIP
Assay: pull-down; called co-immunoprecipitation by the paper; 0.1 mg purified nucleic acid-free PRC2 5m co-expressed with both MBP-EZH2 (uncleavable) and untagged EZH2, bound to amylose beads 30 min at 4°C in 10 mM Tris-HCl pH 7.5, 250 mM NaCl, 1 mM TCEP, washed twice, eluted with 20 mM maltose; immunoblotting (semi-quantitative for EZH2)
Settings: both partners purified

B1: EZH2, untagged (cleavable MBP tag removed) (natural protein)
chain: not shown
notes: forward primer starts at codon 2 (GQTGKKS), reverse primer holds the stop codon; Present as a subunit of the co-purified PRC2 complex, never isolated alone; also called untagged EZH2; source: Sf9, baculovirus, co-expressed and co-purified with the other PRC2 subunits (amylose resin, PreScission cleavage, SEC); not shown: His6, N-terminal, cleaved; MBP, N-terminal, cleaved
ratio of tagged to untagged EZH2 in the MBP pull down: ~3 tagged:untagged

— PMC4132707, “A dimeric state for PRC2” (Nucleic Acids Research, 2014)
